From patent US20240228584A1 (FBD BIOLOGICS, published 2024)

B1: G4_TGFβRII (wt) (Fc fusion)
chain: IPPHVQKSVNNDMIVTDNNGAVKFPQLCKFCDVRFSTCDNQKSCMSNCSITSICEKPQEVCVAVWRKNDENITLETVCHDPKLPYHDFILEDAASPKCIMKEKKKPGETFFMCSCSSDECNDNIIFSEEYNTSNPD
notes: TGFβRII extracellular domain linked to an IgG4 Fc region; Fc is placed first here only because of the name G4_TGFβRII; also called wild-type G4_TGFβRII protein; not shown: Fc region of IgG4 (and any linker)
B2: human TGFβ3 (ligand, UniProt P10600 301-412, looked up)
chain: ALDTNYCFRNLEENCCVRPLYIDFRQDLGWKWVHEPKGYYANFCSGPCPYLRSADTTHSTVLGLYNTLNPEASASPCCVPQDLEPLTILYYVGRTPKVEQLSNMVVKSCKCS

How the values were obtained:
[1] = molecular target: B2; assay: ELISA, plate coated with 0.5 ug/ml human TGFβ3, 1 h incubation, HRP secondary antibody, OD450
Protocol: (§1) A 96-well EIA microplate was coated with 0.5 ug/ml human TGFβ (TGFβ1, TGFβ2, or TGFβ3) overnight at 4° C. […] The unbound proteins were removed by washing the wells with 1×PBST (1×PBS containing 0.05% Tween 20) three times. A HRP-conjugated secondary antibody (1:5000) was added to the wells at room temperature (RT) for 1 hour. After the incubation, excess secondary antibodies were removed by washing the wells with 1×PBST three times. Finally, 3,3′,5,5′-Tetramethylbenzidine (TMB) was added for color development. The reaction was stopped and HRP activity was measured using a spectrophotometer at 450 nm.

[2] = molecular target: T1, human TGFβ1 (human, UniProt P01137 279-390); assay: ELISA, plate coated with 0.5 ug/ml human TGFβ1, 1 h incubation, HRP secondary antibody, OD450
T1 sequence (P01137 279-390 limits assumed): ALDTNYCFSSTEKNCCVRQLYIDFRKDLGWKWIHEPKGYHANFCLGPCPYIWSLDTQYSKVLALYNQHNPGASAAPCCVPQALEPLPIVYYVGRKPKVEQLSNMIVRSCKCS
Protocol: as §1

[3] = molecular target: B2; assay: cell-based or functional assay
[4] = molecular target: T1, human TGFβ1; assay: ELISA (on rate), plate coated with 0.5 ug/ml human TGFβ1, 5 min incubation, OD450
Protocol: as §1, with “For on-rate binding ability, a 96-well” for “A 96-well”, “0.5 μg/ml” for “0.5 ug/ml”, “TGFβ (TGFβ1)” for “TGFβ (TGFβ1, TGFβ2, or TGFβ3)”, “containing 0.1%” for “containing 0.05%”, “at RT” for “at room temperature (RT)”

[5] = molecular target: T1, human TGFβ1; assay: ELISA (off rate), plate coated with 0.5 ug/ml human TGFβ1, 1 h incubation, then 2 h wash on a shaker, OD450
Protocol: A HRP-conjugated secondary antibody (1:5000) was added to the wells at RT for 1 hour. After the incubation, excess secondary antibodies were removed by washing the wells with 1×PBST three times. Finally, 3,3′,5,5′-Tetramethylbenzidine (TMB) was added for color development. The reaction was stopped and HRP activity was measured using a spectrophotometer at 450 nm.

[6] = molecular target: T1, human TGFβ1; assay: cell-based or functional assay
[7] = molecular target: B1; assay: ELISA, plate coated with 0.5 ug/ml human TGFβ3, 1 h incubation, HRP secondary antibody, OD450
Protocol: as §1

EC50 (read off the curve) [1] [nM] | EC50 (read off the curve) [2] [nM] | IC50 (read off the curve) [3] [nM] | EC50 [4] [nM] | EC50 (read off the curve) [5] [nM] | IC50 (read off the curve) [6] [nM] | binding result [7] | Binder
~2 | ~6 | ~3 | 10.8 | ~4 | ~1 | – | B1
– | – | – | – | – | – | binds | B2
